Reference: publication PMC2104711 (The EMBO Journal, 2007)

Molecular target: human XLF/Cernunnos (1–233), tag-free (cleaved XLF441) (human, UniProt Q9H9Q4 1-233)
Test: SPR

Chain of human XLF/Cernunnos (1–233), tag-free (cleaved XLF441) (Q9H9Q4 1-233): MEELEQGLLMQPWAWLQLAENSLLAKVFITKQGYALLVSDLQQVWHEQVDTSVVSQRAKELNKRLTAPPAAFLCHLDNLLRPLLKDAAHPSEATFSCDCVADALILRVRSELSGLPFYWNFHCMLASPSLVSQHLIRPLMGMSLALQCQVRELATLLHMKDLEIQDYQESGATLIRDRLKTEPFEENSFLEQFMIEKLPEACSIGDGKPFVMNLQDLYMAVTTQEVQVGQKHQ

B1: XRCC4 (1–213) with N-terminal His6 tag (domain or fragment, UniProt Q13426 1-213, looked up)
chain: MERKISRIHLVSEPSITHFLQVSWEKTLESGFVITLTDGHSAWTGTVSESEISQEADDMAMEKGKYVGELRKALLSGAGPADVYTFNFSKESCYFFFEKNLKDVSFRLGSFNLEKVENPAEVIRELICYCLDTIAENQAKNEHLQKENERLLRDWNDVQGRFEKCVSAKEALETDLYKRFILVLNEKKTKIRSLHNKLLNAAQEREKDIKQEG
For B1, the Kd was 7.8 µM.
